Where no end group is shown, it is not given here.
Target: T1, NPR-C (Homo sapiens, UniProt P17342)
T1 construct: expressed in transfected cells
T1 sequence (P17342 27-541): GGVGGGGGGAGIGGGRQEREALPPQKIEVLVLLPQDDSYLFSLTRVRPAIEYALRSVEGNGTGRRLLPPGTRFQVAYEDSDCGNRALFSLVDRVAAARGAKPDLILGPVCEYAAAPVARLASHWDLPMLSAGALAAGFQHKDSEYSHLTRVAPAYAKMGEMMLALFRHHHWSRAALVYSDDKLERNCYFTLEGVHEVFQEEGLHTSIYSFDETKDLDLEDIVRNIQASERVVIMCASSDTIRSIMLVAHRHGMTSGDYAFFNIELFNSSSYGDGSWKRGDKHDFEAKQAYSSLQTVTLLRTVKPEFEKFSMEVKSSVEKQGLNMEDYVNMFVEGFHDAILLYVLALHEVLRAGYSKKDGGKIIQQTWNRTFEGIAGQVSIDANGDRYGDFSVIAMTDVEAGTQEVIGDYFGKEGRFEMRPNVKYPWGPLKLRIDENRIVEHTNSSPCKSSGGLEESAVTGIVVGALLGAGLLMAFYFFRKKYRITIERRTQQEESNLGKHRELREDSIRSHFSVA
Test: Measurement of binding affinities for NPR-C, membranes from stable 293 cell lines, 125I rat ANP displacement
Design: unit not given here
Conditions: pure synthetic peptide vs 30 pM 125I rat ANP, 2 hours room temperature; duplicate points, three separate assays
Method: Membrane Preparation Membranes from stable 293 cell lines expressing NPR-A (Lowe and Fendly (1992) J. Biol. Chem.) or NPR-C (Cunningham et al. (1994) supra) were prepared by removing the cells from tissue culture plates with 0.5MM EDTA in PBS, centrifuging at 225×g, 4° C., and resuspending in 50 mM Hepes Ph7.4, 1 mM EDTA, 1 mM DTT, 250 mM Sucrose, 0.7 μg/ml Pepstatin A, 0.5 μg/ml Leupeptin, 1 mM PMSF, 1 μM Phosphoramidon. The resuspended cells were homogenized for 30 seconds with a Brinkman polytron on setting 5. The homogenate was centrifuged in 30 ml corex tubes in Sorval HB-4 rotor at 400×(1500 rpm) for 10 minutes at 4° C. The supernatant was centrifuged again in screw cap polycarbonate tubes (Beckman 355618) at 100,000×g (31,500 rpm) for 30 minutes, 4° C. in a Beckman TI60 rotor. The pellet was resuspended in 50 mM Hepes, 0.1 mM EDTA, 5.0 mM MgCl2, 100 mM NaCl, 0.7μg/ml Pepstatin A, 0.5 μg/ml Leupeptin, 1 mM PMSF, 1 μM Phosphoramidon and homogenized again with 15 strokes in a Dounce homogenizer (Wheaton 7 ml, #357542). The membranes were passed through a 22 gauge needle several times before aliquoting into eppendorf tubes for storage at -80° C.
The binding was allowed to go for 2 hours at room temperature in 96 well U-bottomed microtiter polypropylene plates (Sigma M-4029) with gentle agitation. The bound hormone was separated from the free using a Packard Filtermate 196 cell harvester and 1% polyethyleneimine-saturated Packard unifilter-96 GF/B plates by vacuum filtration. The plates were dried under vacuum chamber for 10 minutes prior to adding 40 μl Microscint-20 scintillant and counting in a Packard Topcount scintillation counter. Each affinity represents points measured in duplicate within three separate assays.

In the case of “hBNP Arg13Gly, Lys14Arg, Ser19Arg (SPKMVQGSGCFGGRMDRIRSSSGLGCKVLRRH)”, the “NPR-C binding affinity (Assay #1)” value is reported as 28,370 ± 9,654.
With hANP Gly16Arg [reference compound] the “NPR-C binding affinity (Assay #1)” value was 10,601 ± 1271.

Target: NPR-A IgG fusion (A-IgG) (Homo sapiens, UniProt P16066)
Sequence (P16066 with tags, fused parts or gaps limits assumed): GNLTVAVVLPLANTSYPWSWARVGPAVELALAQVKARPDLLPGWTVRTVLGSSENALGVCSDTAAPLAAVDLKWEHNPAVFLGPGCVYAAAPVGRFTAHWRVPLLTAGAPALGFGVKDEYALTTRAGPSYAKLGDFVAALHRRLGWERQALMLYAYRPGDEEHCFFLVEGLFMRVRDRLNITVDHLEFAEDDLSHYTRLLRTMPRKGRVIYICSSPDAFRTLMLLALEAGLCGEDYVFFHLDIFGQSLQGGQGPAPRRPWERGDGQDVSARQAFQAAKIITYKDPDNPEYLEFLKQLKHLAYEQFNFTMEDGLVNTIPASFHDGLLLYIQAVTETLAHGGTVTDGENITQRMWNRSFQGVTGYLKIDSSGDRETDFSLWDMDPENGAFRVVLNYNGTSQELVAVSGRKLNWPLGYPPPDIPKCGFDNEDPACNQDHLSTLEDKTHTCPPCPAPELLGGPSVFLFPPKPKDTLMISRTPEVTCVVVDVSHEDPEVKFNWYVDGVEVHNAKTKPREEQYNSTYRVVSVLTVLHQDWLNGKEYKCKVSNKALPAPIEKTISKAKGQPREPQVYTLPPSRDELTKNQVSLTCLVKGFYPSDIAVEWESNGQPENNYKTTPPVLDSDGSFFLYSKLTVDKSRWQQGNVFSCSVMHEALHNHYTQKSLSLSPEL
Test: Phage ELISA measurement of phagemid affinities for NPR-A (A-IgG)
Conditions: ratio of mutant BNP phagemid binding affinity (EC50) to ANP phagemid binding to A-IgG; clones after 7 rounds of selection
Method: ELISA measurement of phagemic affinities for NPR-A and NPR-C: Phage ELISA were determined according to the method of Cunningham, B. C. et al., (1994) EMBO J., 13:2508-2515. Microtiter plates (Nunc, Maxisorb, 96 wells) were coated with purified A-IgG (at 1 μg/ml) in 50 mM sodium bicarbonate (pH 9.6) at 4 C overnight. The plates were blocked with 5% skimmed milk and washed with PBS, 0.01% TWEEN 20. Serial dilutions of competing receptor (A-IgG or C-IgG) and a subsaturating concentration of BNP-phagemid were added to wells in 100 μl of binding buffer (2% skim milk in PBS). After 2 h the plates were washed, and the bound phagemid stained with sheep anti-M13 HRP conjugate antibody (Pharmacia #279402-01),and assayed.
The amino acid residues found at each randomized position after 7 rounds of selection are shown in Table I. 8 segments of 3 to 5 amino acids randomized by primer mutagenisis are indicated at the top of the figure, immediately above the numbering for 32 amino acid human BNP, the sequence of which is shown in single letter amino acid code. Cysteine residues 10 and 26 were not mutagenized since they form a disulfide bond essential for binding to NPR-A. The substitution of K3 for D (Display BNP) is analogous to the acidic substitution R3D in ANP used to facilitate secretion expression in E. coli (Cunningham et al. (1994)). Individual clones were picked and the DNA sequence was determined. The number of times a particular sequence was observed is shown on the left. The ratio of mutant BNP phagemid binding affinity to ANP phagemid binding to A-IgG is shown on the right. Mutations that occur outside of the mutagenesis window result from polymerase misincorporation mutations that render a selection advantage to the mutant BNP phagemid (Cunningham et al. (1994)).

Going from “hBNP Lys14Asn, Ser19Arg, Ser20Lys, Ser21Thr (SPKMVQGSGCFGRNMERIRKTSGLGCKVLRRH; ends and bridges not checked; cysteine pairing not given here) [N N K T, measured as BNP-phagemid clone (Display BNP, K3D)]” to “hBNP Gly23Leu, Leu24Trp, Gly25Arg (SPKMVQGSGCFGRKMERISSSSLWRCKVLRRH; ends and bridges not checked; cysteine pairing not given here) [L W R, measured as BNP-phagemid clone (Display BNP, K3D)]”, the “Binding to NPR-A ratio of mutant/hANP” value falls from 4.2 to 2.0.

Going from “hBNP Lys14Asn, Ser19Gly, Ser20His, Ser21Leu (SPKMVQGSGCFGRNMERIGHLSGLGCKVLRRH; displayed on phagemid) [N G H L, measured as BNP-phagemid clone (Display BNP, K3D)]” to “hBNP Lys14Asn, Ser19Ala, Ser20Arg, Ser21Glu (SPKMVQGSGCFGRNMERIARESGLGCKVLRRH; ends and bridges not checked; cysteine pairing not given here) [N A R E, measured as BNP-phagemid clone (Display BNP, K3D)]”, the “Binding to NPR-A ratio of mutant/hANP” value falls from 14.8 to 1.3.

Compared with “hBNP Lys14Asn, Ser19Arg, Ser20His, Ser21Leu (SPKMVQGSGCFGRNMERIRHLSGLGCKVLRRH; ends and bridges not checked; cysteine pairing not given here) [N R H L, measured as BNP-phagemid clone (Display BNP, K3D)]”, “hBNP Lys14Gln, Ser19Arg, Ser20His, Ser22Thr (SPKMVQGSGCFGRQMERIRHSTGLGCKVLRRH; displayed on phagemid) [Q R H S T, measured as BNP-phagemid clone (Display BNP, K3D)]” is higher in “Binding to NPR-A ratio of mutant/hANP” value: 1.0 for the first, 4.0 for the second.

Compared with “F W R: BNP-phagemid clone of Table I (Display BNP, K3D); substitutions as in hBNP Gly23Phe, Leu24Trp, Gly25Arg (SEQ ID NO:2) (SPKMVQGSGCFGRKMERISSSSFWRCKVLRRH; ends and bridges not checked; cysteine pairing not given here)”, “hBNP Gly23Met, Leu24Phe, Gly25Arg (SPKMVQGSGCFGRKMERISSSSMFRCKVLRRH; ends and bridges not checked; cysteine pairing not given here) [M F R, measured as BNP-phagemid clone (Display BNP, K3D)]” is higher in “Binding to NPR-A ratio of mutant/hANP” value: 0.8 for the first, 3.0 for the second.

Going from “hBNP Lys14Asn, Ser19Arg, Ser21Trp [N R S W]” to “hBNP Lys14Asn, Ser19Arg, Ser20Gly (SPKMVQGSGCFGRNMERIRGSSGLGCKVLRRH; ends and bridges not checked; cysteine pairing not given here) [N R G, measured as BNP-phagemid clone (Display BNP, K3D)]”, the “Binding to NPR-A ratio of mutant/hANP” value falls from 4.4 to 3.9.

Compared with “hBNP Gly23Met, Leu24Tyr, Gly25Arg (SPKMVQGSGCFGRKMERISSSSMYRCKVLRRH; ends and bridges not checked; cysteine pairing not given here) [M Y R, measured as BNP-phagemid clone (Display BNP, K3D)]”, “hBNP Lys14Asn, Ser19Arg, Ser20Thr, Ser21Lys (SPKMVQGSGCFGRNMERIRTKSGLGCKVLRRH; ends and bridges not checked; cysteine pairing not given here) [N R T K, measured as BNP-phagemid clone (Display BNP, K3D)]” is higher in “Binding to NPR-A ratio of mutant/hANP” value: 2.4 for the first, 4.4 for the second.

First: hBNP Lys14Asn, Ser19Arg, Ser20Gly, Ser21Met (SPKMVQGSGCFGRNMERIRGMSGLGCKVLRRH; ends and bridges not checked; cysteine pairing not given here) [N R G M, measured as BNP-phagemid clone (Display BNP, K3D)]
Second: G R R: BNP-phagemid clone of Table I (Display BNP, K3D); substitutions seem those of hBNP Arg13Gly, Lys14Arg, Ser19Arg
The “Binding to NPR-A ratio of mutant/hANP” value of the first is higher: 2.9 for the first, 1.6 for the second.

Going from “hBNP Lys14Asn, Ser19Gly, Ser20Gly, Ser21Leu (SPKMVQGSGCFGRNMERIGGLSGLGCKVLRRH; ends and bridges not checked; cysteine pairing not given here) [N G G L, measured as BNP-phagemid clone (Display BNP, K3D)]” to “hBNP Lys14Asn, Ser19Arg (SPKMVQGSGCFGRNMERIRSSSGLGCKVLRRH; ends and bridges not checked; cysteine pairing not given here) [N R, measured as BNP-phagemid clone (Display BNP, K3D)]”, the “Binding to NPR-A ratio of mutant/hANP” value falls from 3.9 to 3.5.

Going from “hBNP Lys14Thr, Ser19Arg, Ser20His, Ser21Gly, Ser22Gly (SPKMVQGSGCFGRTMERIRHGGGLGCKVLRRH; displayed on phagemid) [T R H G H, measured as BNP-phagemid clone (Display BNP, K3D)]” to “hBNP Lys14Asn, Ser19Gly, Ser20Arg, Ser21Ala (SPKMVQGSGCFGRNMERIGRASGLGCKVLRRH; ends and bridges not checked; cysteine pairing not given here) [N G R A, measured as BNP-phagemid clone (Display BNP, K3D)]”, the “Binding to NPR-A ratio of mutant/hANP” value falls from 5.0 to 4.8.

First: hBNP Lys14Asn, Ser19Arg, Ser20Asn, Ser21Thr (SPKMVQGSGCFGRNMERIRNTSGLGCKVLRRH; ends and bridges not checked; cysteine pairing not given here) [N R N T, measured as BNP-phagemid clone (Display BNP, K3D)]
Second: hBNP Gly23Met, Leu24Trp, Gly25Arg [M W R]
The “Binding to NPR-A ratio of mutant/hANP” value of the first is higher: 8.7 for the first, 1.0 for the second.
